Assay results reported in article doi:10.1101/2025.05.02.651258, “The LOTUS domain of Oskar promotes localisation of both protein and mRNA components of Drosophila germ plasm” (bioRxiv, 2025).

Experiments:
[1] = molecular target: the molecule itself; test: SEC-MALS; Superdex 75 10/300 GL, 10 mg/mL, 20 mM Tris pH 8.0, 200 mM NaCl; data not shown
[2] = molecular target: the molecule itself; test: SEC; analytical SEC, Superose 6 PC 3.2/30, 5.0 mg/mL, 20 mM Tris pH 8.0 with 200, 500 or 1000 mM NaCl, 0.05 mL/min; apparent molecular weight from gel filtration standards

B1: D. melanogaster Oskar LOTUS domain, residues 139-241 (Losk139–241), purified (domain or fragment)
chain: MTIIESNYISVREEYPDIDSEVRAILLSHAQNGITISSIKSEYRKLTGNPFPLHDNVTDFLLTIPNVTAECSESGKRIFNLKASLKNGHLLDMVLNQKERTSDLEVLFQ
notes: Oskar, D. melanogaster, LOTUS domain residues 139-241 (Losk139–241); numbers on the long isoform (1-606); remnant of the 3C protease cleavage site left at the C-terminus after removal of the decahistidine tag; Crystal form 4 was grown from HgCl2-derivatised protein; also called fly LOTUS domain; source: E. coli BL21(DE3), purified (Ni-NTA, 3C protease cleavage, gel filtration); not shown: His10, …
stoichiometry N [1]: 2 | stoichiometry N [2]: ~2
